# Data: IntAct's records for PubMed 24469404
# B1: TERF1-interacting nuclear factor 2 (Mus musculus), Q9QXG9 (parent)
# chain: MAPPPGVGPASLRFAAAASWLVVRRRRVEHFPKVVEFLQSLRAAAPGLVCYRHHERLCMSLKAKVVVELILQARPWDQVLNALKHHFPAESRTTKEDRKLLEARENFCLLVKHLSEDPPSSLQELEQDYGESFLVAMEKLLFEYLCQLEKALPPVRAQELQDALSWSQPGSFITSSVALHQYGMDMGWTFPESSTSGSGNLIEPMEESPHQQTRPAFHSPLPKAKLGPHQPASLEHPEHLAGHRFNLAPLGKRKSRSHWTSAKACHKERPTVMLLPFRNMGLPAQDLSNPKSREEPGAASAASVGTEPVCTEEAKTPSRPLGKRALEETPPDSPAASRRTV
# partner: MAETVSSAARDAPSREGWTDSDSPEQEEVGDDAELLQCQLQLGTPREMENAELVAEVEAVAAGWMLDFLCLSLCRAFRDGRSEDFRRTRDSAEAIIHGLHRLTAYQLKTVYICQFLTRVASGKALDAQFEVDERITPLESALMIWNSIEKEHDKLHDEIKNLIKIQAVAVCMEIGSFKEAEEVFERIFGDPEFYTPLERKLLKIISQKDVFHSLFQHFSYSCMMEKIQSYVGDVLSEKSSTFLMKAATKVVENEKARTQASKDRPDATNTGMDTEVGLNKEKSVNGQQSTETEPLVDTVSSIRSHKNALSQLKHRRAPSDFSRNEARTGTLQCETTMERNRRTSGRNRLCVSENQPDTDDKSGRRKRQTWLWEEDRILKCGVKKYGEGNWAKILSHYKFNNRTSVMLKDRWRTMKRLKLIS
# Variants of: B1
# Details: with terf1_mouse Terf1, P70371
row,Variant,effect of a mutation on the interaction
1,MAPPPGVGPASLRFAAAASWLVVRRRRVEHFPKVVEFLQSLRAAAPGLVCYRHHERLCMSLKAKVVVELILQARPWDQVLNALKHHFPAESRTTKEDRKLLEARENFCLLVKHLSEDPPSSLQELEQDYGESFLVAMEKLLFEYLCQLEKALPPVRAQELQDALSWSQPGSFITSSVALHQYGMDMGWTFPESSTSGSGNLIEPMEESPHQQTRPAFHSPLPKAKLGPHQPASLEHPEHLAGHRFNEAPLGKRKSRSHWTSAKACHKERPTVMLLPFRNMGLPAQDLSNPKSREEPGAASAASVGTEPVCTEEAKTPSRPLGKRALEETPPDSPAASRRTV [L247E],disrupting interaction
